Assay results reported in patent US20260258137A1 (HARBOUR BIOMED SHANGHAI, published 2026).
Read-outs that look alike come from different tables or passages of the source.

Experiments:
[1] = target: T1, human PD-L1 on CHO-K1 cells (CHO-K1/hPD-L1, Nanjing Genscript, M00543) (human, UniProt Q9NZQ7 19-290); assay: flow cytometry on CHO-K1/hPD-L1 cells
T1 construct: whole, on cells; also called CHO-K1 cells overexpressing human PD-L1; human PD-L1 on the cell surface
Text: (§1) To study the binding activity of the PD-L1 antigen binding proteins to human/cynomolgus PD-L1 in vitro, this example uses the CHOK1 cell line overexpressing human PD-L1 (CHO-K1/hPD-L1, Nanjing Genscript, M00543) or the CHOK1 cell line overexpressing cynomolgus PD-L1 (CHO-K1/cynoPD-L1, Nanjing Genscript, M00573) to perform binding experiments at cellular level. In brief, the PD-L1 cells were digested, and resuspended in F-12K complete medium, and the cell density was adjusted to 1× 10⁶ cells/mL. […] The cells were placed at 4° C., incubated away from light for 1 hr. Then, 100 μL/well of pre-cooled PBS was added to wash cells twice. The cells were centrifuged at 500 g, 4° C. for 5 mins, and the supernatant was discarded. […] 200 μL/well of pre-cooled PBS was added to wash cells twice, and the cells were centrifuged at 500 g, 4° C. for 5 mins, and the supernatant was discarded. Finally, the cells were resuspended with 200 μL/well of pre-cooled PBS. The signal values of fluorescent luminescence were read using BD FACS MAYTOII. The flow cytometer BD FAC MAYTOII was used to read the signal values of fluorescent luminescence, and the software FlowJo v10 (FlowJo, LLC) was used to process and analyze data. […]

[2] = target: T1, human PD-L1 on CHO-K1 cells …; assay: flow cytometry on CHO-K1/hPD-L1 cells; remark: listed apart in the source
Text: as §1

[3] = target: human PD-L1 on Hep3B cells co-expressing human PD-L1 and OS8 (human, UniProt Q9NZQ7 19-290); assay: cell-based or functional assay
[4] = target: T1, human PD-L1 on CHO-K1 cells …; assay: flow cytometry competition: biotin-hPD-1 binding to CHO-K1/hPD-L1 cells
Experimental: (§2) In brief, the CHO-K1/hPD-L1 cells were digested, and resuspended in F-12K complete medium. The cell density was adjusted to 1× 10⁶ cells/mL. […] Cells were placed at 4° C., and were incubated away from light for 1 hr. Then, the cells were centrifugated at 4° C. for 5 mins, and the supernatant was discarded. […] The cells were washed with 100 μL/well of pre-cooled PBS twice, centrifuged at 500 g, 4° C. for 5 mins, and the supernatant was discarded. […] 200 μL/well of pre-cooled PBS was used to wash cells twice, cells were centrifuged at 500 g, 4° C. for 5 mins, the supernatant was discarded. Finally, 200 μL/well of pre-cooled PBS was used to resuspend cells. The BD FACS MAYTOII was used to read the signal value of fluorescent luminescence. The software GraphPad Prism 8 was applied to perform data processing and plotting analysis, and the parameters such as binding curves and IC50 values were obtained by four-parameter non-linear fitting.

[5] = target: T1, human PD-L1 on CHO-K1 cells …; assay: as above; remark: listed apart in the source
Experimental: as §2

T1 sequence (Q9NZQ7 19-290, one chain of several): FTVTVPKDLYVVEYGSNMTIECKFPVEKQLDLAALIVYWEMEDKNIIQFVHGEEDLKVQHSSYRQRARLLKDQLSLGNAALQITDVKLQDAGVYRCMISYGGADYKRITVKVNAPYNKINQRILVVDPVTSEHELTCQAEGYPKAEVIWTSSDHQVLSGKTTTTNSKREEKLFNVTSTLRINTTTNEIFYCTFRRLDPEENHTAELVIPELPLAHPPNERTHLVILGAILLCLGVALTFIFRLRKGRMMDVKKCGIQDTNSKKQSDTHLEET
Chain of human PD-L1 on Hep3B cells co-expressing human PD-L1 and OS8 (Q9NZQ7 19-290): as the sequence (Q9NZQ7 19-290, one chain of several) above

B1: PR000416 (antibody, human IgG1, kappa)
heavy: not shown
light: DIQMTQSPSTLSASVGDRVTVTCRASQSIYIWLAWYQQKPGKAPNLLIYKASSLETGVPSRFSGSGSGTEFTLTISSLQPDDFATYYCQQYYGSSRTFGQGTKVEIKRTVAAPSVFIFPPSDEQLKSGTASVVCLLNNFYPREAKVQWKVDNALQSGNSQESVTEQDSKDSTYSLSSTLTLSKADYEKHKVYACEVTHQGLSSPVTKSFNRGEC
notes: PR000265 with the heavy chain constant region replaced by the human IgG1 constant region without mutation; also called Fc-type switching of PR000265
EC50 [1]: 258 pM
MFI maximum value [1]: 40400 MFI
EC50 [2]: 231 pM
MFI maximum value [2]: 37900 MFI
EC50 (nM), PD-1 reporter gene cell line [3]: 0.077 nM
Maximum fluorescence value (RLU) [3]: 3660 RLU
IC50 [4]: 190 pM
IC50 [5]: 127 pM
